Assay results as given in the supplement of paper PMC9876800.

Test system: peptide library, one residue held at a place counted from the S/T acceptor
Experiment: relative phosphorylation of the sub-library (ratio to the mean residue at this position); higher = residue favoured
Settings: human
How it was run: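 Spots on streptavidin membranes were phosphorimaged and quantified by densitometry to measure phosphorylation of biotinylated degenerate peptide sub-libraries by purified recombinant kinases, human or orthologue constructs. The reactions ran in 384-well plates for 90 min under kinase-specific conditions, with peptides at 50 μM and 50 μM ATP spiked with γ-32P-ATP. Relative sub-library phosphorylation is the ratio to the mean residue at that position.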

Chain of TGFBR1, construct: aa20-end (P36897 20-503, looked up): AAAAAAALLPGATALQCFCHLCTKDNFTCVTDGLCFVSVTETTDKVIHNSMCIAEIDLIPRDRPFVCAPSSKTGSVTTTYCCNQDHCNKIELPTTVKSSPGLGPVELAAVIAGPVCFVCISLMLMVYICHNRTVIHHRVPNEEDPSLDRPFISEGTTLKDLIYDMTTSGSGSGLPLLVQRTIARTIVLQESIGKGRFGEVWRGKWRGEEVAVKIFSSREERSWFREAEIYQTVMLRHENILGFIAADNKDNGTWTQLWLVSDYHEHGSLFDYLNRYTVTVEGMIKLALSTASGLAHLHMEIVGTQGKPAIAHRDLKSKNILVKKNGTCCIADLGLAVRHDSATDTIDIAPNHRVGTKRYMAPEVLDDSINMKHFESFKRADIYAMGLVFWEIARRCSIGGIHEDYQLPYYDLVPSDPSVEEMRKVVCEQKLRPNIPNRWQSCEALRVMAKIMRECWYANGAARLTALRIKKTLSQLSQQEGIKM
Chain of WNK3, construct: aa1-434 (Q9BYP7 1-434, looked up): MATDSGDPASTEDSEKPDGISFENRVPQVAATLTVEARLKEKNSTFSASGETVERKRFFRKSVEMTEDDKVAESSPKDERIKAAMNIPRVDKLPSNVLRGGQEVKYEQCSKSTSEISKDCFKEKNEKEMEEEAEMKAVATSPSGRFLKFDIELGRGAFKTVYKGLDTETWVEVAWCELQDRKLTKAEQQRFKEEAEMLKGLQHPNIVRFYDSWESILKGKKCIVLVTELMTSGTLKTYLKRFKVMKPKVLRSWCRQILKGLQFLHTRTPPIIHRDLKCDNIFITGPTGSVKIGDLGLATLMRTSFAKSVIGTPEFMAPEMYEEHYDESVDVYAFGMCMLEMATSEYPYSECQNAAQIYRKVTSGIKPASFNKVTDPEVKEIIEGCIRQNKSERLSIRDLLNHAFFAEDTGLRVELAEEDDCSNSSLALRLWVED

TGFBR1, construct: aa20-end (from UniProt P36897)
relative phosphorylation
Settings	at +1	at +2	at +3	at +4	at -1	at -2	at -3	at -4	at -5
A fixed	0.823	1.16	0.888	0.966	0.853	0.688	0.982	1.11	1.12
D fixed	1.69	1.71	1.48	1.29	1.42	1.62	1.5	1.39	1.15
E fixed	2.27	1.57	1.94	1.55	1.78	7.31	1.73	1.22	1.21
F fixed	1	1.05	0.773	0.942	0.858	0.397	0.748	0.805	0.908
G fixed	0.779	1.13	1.63	1.2	0.834	0.712	1.19	1.33	1.1
H fixed	1.15	0.728	0.792	0.846	0.968	0.513	0.894	0.991	0.944
I fixed	1.03	1.07	0.954	1.01	0.86	0.474	0.814	0.96	0.929
K fixed	0.396	0.545	0.448	0.59	0.5	0.4	0.598	0.719	0.892
L fixed	0.751	0.706	0.899	0.908	1.18	0.486	0.841	0.943	0.878
M fixed	1.25	0.915	0.916	0.871	1.35	0.545	1.1	1.02	0.983
N fixed	0.733	0.874	0.809	0.879	1.06	0.767	1.06	1.15	1.31
P fixed	0.522	1.07	1.32	1.32	0.592	0.459	0.982	1.09	1.03
Q fixed	0.826	0.717	0.794	0.834	1.04	0.893	0.992	0.865	0.917
R fixed	0.357	0.489	0.467	0.519	0.589	0.435	0.633	0.697	0.844
V fixed	1.05	1.18	1.02	0.959	1.26	0.501	0.924	1.02	0.978
W fixed	0.919	0.954	0.915	1.27	0.804	0.4	1.2	0.787	0.822
Y fixed	1.44	1.12	0.956	1.03	1.04	0.401	0.815	0.89	0.98
pThr fixed	3.78	1.38	1.04	1.62	1.19	1.48	1.07	0.963	0.853
pTyr fixed	4.22	1.82	1.39	1.66	1.51	0.639	1.08	1.05	0.835

WNK3, construct: aa1-434 (from UniProt Q9BYP7)
relative phosphorylation
Settings	at +1	at +2	at +3	at +4	at -1	at -2	at -3	at -4	at -5
A fixed	0.622	0.792	0.655	0.69	0.647	1.05	0.84	0.962	0.856
D fixed	0.416	0.7	0.675	0.609	0.462	0.409	0.519	0.598	0.749
E fixed	0.359	0.496	0.64	0.647	0.6	0.361	0.552	0.766	0.91
F fixed	1.36	1.09	1.43	1.25	0.983	0.865	0.748	0.843	1.14
G fixed	0.784	0.939	0.674	0.771	0.605	1.41	0.728	0.853	0.972
H fixed	1.02	0.981	1.31	1.01	1.11	1.56	1.44	1.3	1.24
I fixed	1.19	1.59	1.09	1.38	0.924	0.746	0.95	0.836	0.879
K fixed	0.825	0.772	1	1	1.51	1.19	1.7	1.37	1.39
L fixed	1.61	1.5	1.32	1.29	1.26	0.8	0.862	0.858	0.753
M fixed	1.84	1.54	1.29	1.41	1.49	0.852	1.16	0.894	0.861
N fixed	0.937	0.654	0.747	0.682	0.799	0.815	0.795	0.973	0.968
P fixed	0.278	0.356	0.441	0.626	0.428	1.24	0.794	0.8	0.702
Q fixed	1.16	0.608	0.648	0.677	1.22	0.768	1.11	0.901	0.986
R fixed	1.16	1.64	0.994	0.959	1.53	1.85	1.87	1.77	1.69
V fixed	1.03	1.28	0.994	1.35	1.09	1.07	0.871	0.957	0.818
W fixed	1.06	0.946	1.59	1.4	1.15	1.01	1.01	1.14	0.974
Y fixed	1.33	1.12	1.51	1.24	1.2	0.997	1.06	1.19	1.12
pThr fixed	0.485	0.521	0.513	0.543	0.566	0.779	0.812	0.96	0.798
pTyr fixed	0.566	0.549	0.663	0.56	0.893	0.555	0.741	0.842	0.859
